In US20250051454A1 (DUKE UNIVERSITY, published 2025):

Columns and labels:
[1] = target: T1, HLA-E-RL9HIV single chain trimer on transfected 293T cells (human, UniProt P61769 21-119; P13747 22-358); assay: flow cytometry, SCT-transfected 293T cells, MFI bar chart [E]
T1 construct: also called control HLA-E-peptide complex

[2] = target: T2, HLA-E-RL9SIV single chain trimer on transfected 293T cells (human, UniProt P61769 21-119; P13747 22-358); assay: as above
T2 construct: also called control HLA-E-peptide complex

[3] = target: T3, soluble HLA-E-VL9 complex (HLA-E*01:03 heavy chain, beta2-microglobulin, VL9 peptide …) (human)
[4] = target: T3, soluble HLA-E-VL9 complex (HLA-E*01:03 …); assay: SPR, antibody (human IgG1) on CM5 chip, soluble HLA-E-VL9 flowed over; CA123 on a human IgG1 backbone
[5] = target: T2, HLA-E-RL9SIV single chain trimer on …; assay: flow cytometry on SCT-transfected 293T cells
[6] = target: HLA-E on K562-E cells loaded with microbiome-derived peptide […] (Escherichia coli MS 175-1) (human, UniProt P13747 22-358; P61769 21-119); assay: flow cytometry on peptide-loaded K562-E cells, antibody 10 µg/ml
[7] = target: HLA-E on K562-E cells loaded with microbiome-derived peptide […] (Stenotrophomonas sp.) (human, UniProt P13747 22-358; P61769 21-119); assay: as above
[8] = target: HLA-E on K562-E cells loaded with microbiome-derived peptide […] (Pseudomonas formosensis) (human, UniProt P13747 22-358; P61769 21-119); assay: as above
[9] = target: T3, soluble HLA-E-VL9 complex (HLA-E*01:03 …); assay: SPR, antibody on CM5 chip, soluble HLA-E-VL9 flowed over, 1:1 model; IgM 3H4
[10] = target: T4, soluble HLA-E-RL9HIV complex (Homo sapiens); assay: sandwich ELISA: plate coated with the antibody in serial dilution, C-trap-stabilized HLA-E-RL9HIV added, detection with HRP anti-human β2M [panel C]
T4 construct: C-trap-stabilized in the ELISA, biotinylated in the SPR; control antigen; also called C-trap-stabilized HLA-E-RL9HIV

[11] = target: T5, soluble HLA-E-RL9SIV complex (Homo sapiens); assay: sandwich ELISA: plate coated with the antibody in serial dilution, C-trap-stabilized HLA-E-RL9SIV added, detection with HRP anti-human β2M [panel C]
T5 construct: C-trap-stabilized in the ELISA, biotinylated in the SPR; control antigen; also called C-trap-stabilized HLA-E-RL9SIV

[12] = target: T6, Sjogren's syndrome antigen (SSB) (UniProt P05455 1-408); assay: AtheNA autoantigen assay [panel H]
T6 sequence (looked up): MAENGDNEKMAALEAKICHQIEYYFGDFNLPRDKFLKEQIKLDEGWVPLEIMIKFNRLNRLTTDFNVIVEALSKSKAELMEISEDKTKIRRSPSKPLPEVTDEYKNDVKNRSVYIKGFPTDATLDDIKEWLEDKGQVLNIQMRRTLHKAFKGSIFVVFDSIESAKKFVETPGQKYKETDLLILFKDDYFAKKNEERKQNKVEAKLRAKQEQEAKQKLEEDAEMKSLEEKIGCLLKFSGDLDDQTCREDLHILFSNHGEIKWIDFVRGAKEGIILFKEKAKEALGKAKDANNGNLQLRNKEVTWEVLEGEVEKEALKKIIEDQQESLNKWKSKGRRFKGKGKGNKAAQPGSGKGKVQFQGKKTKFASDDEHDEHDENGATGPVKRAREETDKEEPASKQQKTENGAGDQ

[13] = target: T7, scleroderma 70 (Scl-70) (UniProt P11387 2-765); assay: AtheNA autoantigen assay [panel H]
T7 sequence (looked up): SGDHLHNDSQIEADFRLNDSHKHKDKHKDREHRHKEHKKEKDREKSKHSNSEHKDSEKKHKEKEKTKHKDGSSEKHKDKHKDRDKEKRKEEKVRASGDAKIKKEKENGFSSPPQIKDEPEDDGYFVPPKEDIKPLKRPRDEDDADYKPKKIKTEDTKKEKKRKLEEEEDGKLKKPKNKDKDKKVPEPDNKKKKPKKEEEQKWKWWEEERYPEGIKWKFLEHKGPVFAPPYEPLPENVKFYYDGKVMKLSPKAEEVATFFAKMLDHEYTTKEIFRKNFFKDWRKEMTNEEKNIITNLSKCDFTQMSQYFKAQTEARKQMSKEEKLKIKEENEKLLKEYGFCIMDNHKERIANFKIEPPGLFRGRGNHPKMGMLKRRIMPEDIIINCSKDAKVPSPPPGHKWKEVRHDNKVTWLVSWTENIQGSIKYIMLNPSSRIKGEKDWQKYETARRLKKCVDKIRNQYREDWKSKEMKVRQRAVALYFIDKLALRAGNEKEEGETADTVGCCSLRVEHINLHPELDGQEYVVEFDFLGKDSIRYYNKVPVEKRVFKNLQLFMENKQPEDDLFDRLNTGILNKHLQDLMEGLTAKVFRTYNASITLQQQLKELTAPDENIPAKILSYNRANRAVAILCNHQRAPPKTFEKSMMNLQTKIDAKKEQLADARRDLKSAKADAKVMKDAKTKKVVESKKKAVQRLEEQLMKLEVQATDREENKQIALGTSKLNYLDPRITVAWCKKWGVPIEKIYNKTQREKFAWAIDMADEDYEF

[14] = target: T8, Jo-1 antigen (UniProt P12081 2-509); assay: AtheNA autoantigen assay [panel H]
T8 sequence (looked up): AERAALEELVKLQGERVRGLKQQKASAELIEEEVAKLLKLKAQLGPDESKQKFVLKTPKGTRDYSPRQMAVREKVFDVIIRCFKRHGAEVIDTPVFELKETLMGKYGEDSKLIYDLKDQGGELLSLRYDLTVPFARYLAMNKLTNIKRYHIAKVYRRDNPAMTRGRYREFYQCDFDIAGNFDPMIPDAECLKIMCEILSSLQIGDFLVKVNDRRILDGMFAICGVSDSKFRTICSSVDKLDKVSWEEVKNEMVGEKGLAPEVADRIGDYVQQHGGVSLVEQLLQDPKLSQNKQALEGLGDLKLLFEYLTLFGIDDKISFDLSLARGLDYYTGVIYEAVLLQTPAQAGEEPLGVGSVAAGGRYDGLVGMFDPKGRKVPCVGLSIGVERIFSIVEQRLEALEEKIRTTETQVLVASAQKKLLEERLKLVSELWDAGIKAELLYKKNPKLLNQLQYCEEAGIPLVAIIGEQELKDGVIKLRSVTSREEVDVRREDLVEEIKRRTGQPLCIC

[15] = target: T9, centromere B (Cent B) (UniProt P07199 1-599); assay: AtheNA autoantigen assay [panel H]
T9 sequence (looked up): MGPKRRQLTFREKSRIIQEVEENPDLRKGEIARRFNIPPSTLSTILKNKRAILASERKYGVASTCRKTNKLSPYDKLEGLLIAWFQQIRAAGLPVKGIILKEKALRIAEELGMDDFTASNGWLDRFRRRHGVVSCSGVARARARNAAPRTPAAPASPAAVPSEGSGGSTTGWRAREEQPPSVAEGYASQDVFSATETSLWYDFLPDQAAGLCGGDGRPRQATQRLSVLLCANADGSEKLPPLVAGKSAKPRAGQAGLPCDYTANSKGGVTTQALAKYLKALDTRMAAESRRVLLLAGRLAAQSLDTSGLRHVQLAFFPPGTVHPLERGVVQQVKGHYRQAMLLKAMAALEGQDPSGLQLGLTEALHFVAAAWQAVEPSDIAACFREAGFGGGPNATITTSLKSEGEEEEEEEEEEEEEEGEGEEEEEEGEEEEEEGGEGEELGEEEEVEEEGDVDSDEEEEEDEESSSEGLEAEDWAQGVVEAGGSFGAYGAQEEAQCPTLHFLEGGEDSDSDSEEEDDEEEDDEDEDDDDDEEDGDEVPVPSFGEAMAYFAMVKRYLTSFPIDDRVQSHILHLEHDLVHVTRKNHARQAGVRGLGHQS

[16] = target: T3, soluble HLA-E-VL9 complex (HLA-E*01:03 …); assay: SPR, antibody on CM5 chip, soluble HLA-E-VL9 flowed over, 1:1 model; human IgG1 backbone 3H4

B1: CA178 (antibody, V domains shown)
VH: QVQLVQSGAEVKKPGSSVKVSCKASGGTFSSYAISWVRQAPGQGLEWMGGIIPIFGTANYAQKFQGRVTITADESTSTAYMELSSLRSEDTAVYYCARDYGGSYYYEYFQHWGQGTLVTVSS
VL: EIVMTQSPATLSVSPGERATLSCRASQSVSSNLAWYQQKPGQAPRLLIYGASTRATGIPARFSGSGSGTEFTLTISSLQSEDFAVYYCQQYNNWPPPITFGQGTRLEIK
**Q.** Which results are given for B1?
**A.** binding result [1]: no binding (tested: 2 µg/ml); binding result [2]: no binding (tested: 2 µg/ml)

B2: CA123 (human antibody on a human IgG1 backbone) (antibody, V domains shown)
VH: EVQLVESGGGLVQPGGSLRLSCAASGFTFSSYWMHWVRQAPGKGLVWVSRINSDGSSTSYADSVKGRFTISRDNAKNTLYLQMNSLRAEDTAVYYCARDQGSTSCYYCYYGMDVWGQGTTVTVSS
VL: not shown
notes: also called CA123 IgG
**Q.** How did the koff [3] turn out when B2 was run?
**A.** Its koff is 0.794 s⁻¹.

**Q.** And the kon [3]?
**A.** The kon was 211000 M⁻¹ s⁻¹.

**Q.** Does B2 bind [1]?
**A.** Result: no binding (tested: 2 µg/ml)

**Q.** Does B2 bind [2]?
**A.** Result: no binding (tested: 2 µg/ml)

**Q.** And the Kd [4]?
**A.** The Kd was 3.8 µM.

B3: CA180 (antibody, V domains shown)
VH: QVQLVQSGAEVKKPGASVKVSCKASGYTFTSYGISWVRQAPGQGLEWMGWISAYNGNTNYAQKLQGRVTMTTDTSTSTAYMELRSLRSDDTAVYYCARDLGYSSSWYTSNWFDPWGQGTLVTVSS
VL: QSALTQPASVSGSPGQSITISCTGTSSDVGSYNLVSWYQQHPGKAPKLMIYEGSKRPSGVSNRFSGSKSGNTASLTISGLQAEDEADYYCCSYAGSSTVVFGGGTKLTVL
**Q.** What does the source list for B3?
**A.** binding result [1]: no binding (tested: 2 µg/ml); binding result [2]: no binding (tested: 2 µg/ml)

B4: CA177 (antibody, V domains shown)
VH: QVQLQESGPGLVKPSETLSLTCTVSGGSISSYYWSWIRQPPGKGLEWIGYIYYSGSTNYNPSLKSRVTISVDTSKNQFSLKLSSVTAADTAVYYCASHDYTDHAAGYWGQGTLVTVSS
VL: not shown
**Q.** What does the source list for B4?
**A.** binding result [1]: no binding (tested: 2 µg/ml); binding result [2]: no binding (tested: 2 µg/ml)

B5: 3H4 (mouse IgM monoclonal antibody) (antibody, V domains shown)
VH: EVQLQESGPELVKPGASVKIPCKASGYTFTDYNMDWVKQSHGKSLEWIGDINPNNGGTIYNQKFKGKATLTVDKSSSTAYMELRSLTSEDTAVYYCARPDYYGSSYGWYFDVWGTGTTVTVSS
VL: DIVITQSPSSMYASLGERVTITCKASQDINSYLSWFQQKPGKSPKTLIYRANRLVDGVPSRFSGSGSGQDYSLTISSLEYEDMGIYYCLQYDEFPLTFGAGTKLELK
notes: also called mAb 3H4; IgM 3H4
**Q.** What does the source list for B5?
**A.** binding result [5]: no binding; binding result [6]: binds; binding result [7]: binds; binding result [8]: binds; Kd [9]: 8.1 µM; binding result [10]: no binding; binding result [11]: no binding

B6: 3H4 on a human IgG1 backbone (3H4 Gwt) (antibody, V domains shown)
VH: EVQLQESGPELVKPGASVKIPCKASGYTFTDYNMDWVKQSHGKSLEWIGDINPNNGGTIYNQKFKGKATLTVDKSSSTAYMELRSLTSEDTAVYYCARPDYYGSSYGWYFDVWGTGTTVTVSS
VL: DIVITQSPSSMYASLGERVTITCKASQDINSYLSWFQQKPGKSPKTLIYRANRLVDGVPSRFSGSGSGQDYSLTISSLEYEDMGIYYCLQYDEFPLTFGAGTKLELK
notes: also called 3H4 IgG; wild-type 3H4 IgG
**Q.** Does B6 bind [12]?
**A.** Result: no binding

**Q.** Does B6 bind [13]?
**A.** Result: no binding

**Q.** Does B6 bind [14]?
**A.** Result: no binding

**Q.** Does B6 bind [15]?
**A.** Result: no binding

**Q.** And the Kd [16]?
**A.** The Kd was 49.8 µM.
